Assay results as given in patent US20180155451A1 (published 2018).

T1: FcγRIIb, extracellular domain with C-terminal His tag (human, UniProt P31994 43-217)
T1 construct: extracellular domain; soluble receptor used as Biacore analyte; also called 2b; FcgRIIb
T1 sequence (looked up): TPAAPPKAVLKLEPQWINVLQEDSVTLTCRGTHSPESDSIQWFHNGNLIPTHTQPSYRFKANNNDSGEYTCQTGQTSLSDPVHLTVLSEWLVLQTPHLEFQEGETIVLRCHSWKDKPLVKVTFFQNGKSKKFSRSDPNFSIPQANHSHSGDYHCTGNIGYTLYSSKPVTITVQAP

T2: FcγRIIa R (FcγRIIa, allotype R, Arg at position 131), extracellular domain with C-terminal His tag (human, UniProt P12318 34-217)
T2 construct: extracellular domain; soluble receptor used as Biacore analyte; also called 2aR; FcgRIIa R
T2 sequence (looked up): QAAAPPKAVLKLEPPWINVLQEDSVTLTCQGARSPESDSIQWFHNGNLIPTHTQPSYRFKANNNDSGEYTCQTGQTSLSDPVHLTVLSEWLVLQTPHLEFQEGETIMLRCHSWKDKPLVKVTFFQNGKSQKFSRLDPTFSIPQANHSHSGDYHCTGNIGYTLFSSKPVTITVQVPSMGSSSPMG

T3: FcγRIIb extracellular domain with C-terminal His tag (human, UniProt P31994 43-217)
T3 construct: extracellular domain; also called FcgRIIb; 2b; not shown: His tag attached to the C terminus
T3 sequence (looked up): T1 sequence (looked up)

B1: heterodimerized antibody GpH7-A5/GpH7-B3 variant A327_01G/GpL16-k0 (antibody, human IgG1, kappa)
heavy 1: not shown
heavy 2: not shown
light: DIVMTQSPLSLPVTPGEPASISCQASESLVHSNRNTYLHWYLQKPGQSPQLLIYKVSNRFSGVPDRFSGSGSGTDFTLKISRVEAEDVGVYYCSQNTHVPPTFGQGTKVEIERTVAAPSVFIFPPSDEQLKSGTASVVCLLNNFYPREAKVQWKVDNALQSGNSQESVTEQDSKDSTYSLSSTLTLSKADYEKHKVYACEVTHQGLSSPVTKSFNRGEC
notes: He Ab: anti-glypican-3 IgG1, alteration in one H chain only; also called He Ab
B2: GpH7-A5/GpH7-B3 variant N325_01G/GpL16-k0 (antibody, human IgG1, kappa)
heavy 1: not shown
heavy 2: not shown
light: B1 light
notes: Heterodimerized IgG1; alteration in one H chain only; also called He Ab
B3: GpH7-A5/GpH7-B3 variant A327_01G/GpL16-k0 (antibody, human IgG1, kappa)
heavy 1: not shown
heavy 2: not shown
light: B1 light
notes: as for B2
B4: GpH7-A5/GpH7-B3 variant A327_14T/GpL16-k0 (antibody, human IgG1, kappa)
heavy 1: not shown
heavy 2: not shown
light: B1 light
notes: as for B2
B5: GpH7-A5/GpH7-B3 variant A327_16H/GpL16-k0 (antibody, human IgG1, kappa)
heavy 1: not shown
heavy 2: not shown
light: B1 light
notes: as for B2
B6: GpH7-A5/GpH7-B3 variant S298_05P/GpL16-k0 (antibody, human IgG1, kappa)
heavy 1: not shown
heavy 2: not shown
light: B1 light
notes: as for B2
B7: GpH7-A5/GpH7-B3 variant K326_07I/GpL16-k0 (antibody, human IgG1, kappa)
heavy 1: not shown
heavy 2: not shown
light: B1 light
notes: as for B2
B8: GpH7-A5/GpH7-B3 variant A327_18N/GpL16-k0 (antibody, human IgG1, kappa)
heavy 1: not shown
heavy 2: not shown
light: B1 light
notes: as for B2
B9: GpH7-A5/GpH7-B3 variant K326_10E/GpL16-k0 (antibody, human IgG1, kappa)
heavy 1: not shown
heavy 2: not shown
light: B1 light
notes: as for B2
B10: GpH7-A5/GpH7-B3 variant K326_03V/GpL16-k0 (antibody, human IgG1, kappa)
heavy 1: not shown
heavy 2: not shown
light: B1 light
notes: as for B2
B11: GpH7-A5/GpH7-B3 variant A327_09D/GpL16-k0 (antibody, human IgG1, kappa)
heavy 1: not shown
heavy 2: not shown
light: B1 light
notes: as for B2
B12: GpH7-A5/GpH7-B3 variant K326_08L/GpL16-k0 (antibody, human IgG1, kappa)
heavy 1: not shown
heavy 2: not shown
light: B1 light
notes: as for B2
B13: heterodimerized antibody GpH7-A5/GpH7-B3 variant Y300_19Q/GpL16-k0 (antibody, human IgG1, kappa)
heavy 1: not shown
heavy 2: not shown
light: B1 light
notes: as for B1
B14: GpH7-A5/GpH7-B3 variant A327_20W/GpL16-k0 (antibody, human IgG1, kappa)
heavy 1: not shown
heavy 2: not shown
light: B1 light
notes: as for B2

Columns and labels:
[1] = molecular target: T1, FcγRIIb, extracellular domain with …; experiment: Biacore SPR; binding relative to GpH7-A5/GpH7-B3/GpL16-k0 (=100)
Description: (§1) The heterodimerized antibodies He Abs in which one of the H chains was introduced with an alteration were assayed for their binding activities to each activating FcγR and inhibitory FcγR according to the method described in Example 4. […] The activating FcγRs in FIGS. 26, 27, 28, and 29 are FcγRIa, FcγRIIa (R), FcγRIIa (H), and FcγRIIIa, respectively.
(§2) Analysis of interaction between objective antibody and the FcγR was carried out using Biacore T100 (GE Healthcare). HBS-EP+ (GE Healthcare) was used as the running buffer, and the measurement temperature was set to 25° C. Chips produced by immobilizing the antigen peptide by the amine coupling method to a Series S Sencor Chip CM5 (GE Healthcare), or alternatively, chips produced by allowing preliminarily biotinylated antigen peptides to interact with and immobilize onto a Series S Sensor Chip SA (certified) (GE Healthcare) were used. Antibodies of interest were captured onto an antigen peptide-immobilized chip, and allowed to interact to each FcγR diluted with running buffer. To regenerate and repeatedly use the chip, the antibodies captured on the chip were washed off by reacting 10 mM glycine-HCl, pH 1.5.

[2] = molecular target: T2, FcγRIIa R (FcγRIIa, allotype R, Arg at …); experiment: as above
Description: as §1, §2

[3] = molecular target: T3, FcγRIIb extracellular domain with …; experiment: SPR (Biacore), relative binding
Description: as §2
(§3) The FcγR-binding activity of each antibody was assessed primarily using as an indicator the FcγR-binding activity and dissociation constant for FcγR.

[4] = molecular target: T4, FcγRIIIa extracellular domain with C-terminal His tag (human, UniProt P08637 17-208); experiment: SPR (Biacore), relative binding
T4 construct: extracellular domain; also called FcgRIIIa; 3a; not shown: His tag attached to the C terminus
T4 sequence (P08637 17-208): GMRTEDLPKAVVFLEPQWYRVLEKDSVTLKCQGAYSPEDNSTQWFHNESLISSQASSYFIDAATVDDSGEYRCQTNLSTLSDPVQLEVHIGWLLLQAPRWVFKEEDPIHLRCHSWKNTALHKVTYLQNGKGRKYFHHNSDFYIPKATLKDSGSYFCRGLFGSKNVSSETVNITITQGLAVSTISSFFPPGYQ
Description: as §2, §3

[5] = molecular target: T4, FcγRIIIa extracellular domain with …; experiment: SPR (Biacore); He/Con_3a divided by He/Con_2b (reference: binding to FcγRIIb)
Description: as §2, §3

Binder | He/Con_2b (IIb binding) [1] | He/Con_2aR (IIaR binding) [2] | He/Con_2b (IIb binding) [3] | He/Con_3a (IIIa binding) [4] | He_3a/2b (IIIa/IIb) [5] [ratio]
B1 | 116 % of control | 98.2 % of control |  |  | 
B2 |  |  | 101 % of GpH7-A5/GpH7-B3/GpL16-k0 (=100) | 28 % of GpH7-A5/GpH7-B3/GpL16-k0 (=100) | 0.28
B3 |  |  | 116 % of GpH7-A5/GpH7-B3/GpL16-k0 (=100) | 72.4 % of GpH7-A5/GpH7-B3/GpL16-k0 (=100) | 0.63
B4 |  |  | 89.4 % of GpH7-A5/GpH7-B3/GpL16-k0 (=100) | 41.4 % of GpH7-A5/GpH7-B3/GpL16-k0 (=100) | 0.46
B5 |  |  | 63.5 % of GpH7-A5/GpH7-B3/GpL16-k0 (=100) | 43.7 % of GpH7-A5/GpH7-B3/GpL16-k0 (=100) | 0.69
B6 |  |  | 11.9 % of GpH7-A5/GpH7-B3/GpL16-k0 (=100) |  | 
B7 |  |  | 199 % of GpH7-A5/GpH7-B3/GpL16-k0 (=100) | 139 % of GpH7-A5/GpH7-B3/GpL16-k0 (=100) | 0.7
B8 |  |  | 113 % of GpH7-A5/GpH7-B3/GpL16-k0 (=100) | 61.1 % of GpH7-A5/GpH7-B3/GpL16-k0 (=100) | 0.54
B9 |  |  | 200 % of GpH7-A5/GpH7-B3/GpL16-k0 (=100) | 124 % of GpH7-A5/GpH7-B3/GpL16-k0 (=100) | 0.62
B10 |  |  | 175 % of GpH7-A5/GpH7-B3/GpL16-k0 (=100) | 122 % of GpH7-A5/GpH7-B3/GpL16-k0 (=100) | 0.7
B11 |  |  | 172 % of GpH7-A5/GpH7-B3/GpL16-k0 (=100) | 83.7 % of GpH7-A5/GpH7-B3/GpL16-k0 (=100) | 0.49
B12 |  |  | 177 % of GpH7-A5/GpH7-B3/GpL16-k0 (=100) | 114 % of GpH7-A5/GpH7-B3/GpL16-k0 (=100) | 0.65
B13 | 108 % of control | 99.7 % of control |  |  | 
B14 |  |  | 78.8 % of GpH7-A5/GpH7-B3/GpL16-k0 (=100) | 51.2 % of GpH7-A5/GpH7-B3/GpL16-k0 (=100) | 0.65
